Data on 7 molecules can be found in patent US20170101472A1 (Regeneron, published 2017).

The target of experiment [1] is T1, recombinant human LAG3 expressed with a C-terminal myc-myc-hexahistidine tag (human, UniProt P18627 29-450).
T1 construct: also called hLAG3-mmh; hLAG3.mmh
The experiment is described as follows: SPR, mAb captured, 37 C. On the procedure:
(§1) The BiaCore sensor surface was derivatized with either a polyclonal rabbit anti-mouse antibody (GE, # BR-1008-38) or with a monoclonal mouse anti-human Fc antibody (GE, # BR-1008-39) to capture approximately 50-85 RUs of anti-LAG3 monoclonal antibodies, expressed with either a mouse Fc or a human Fc, respectively. […] The binding of the LAG3 reagents to captured monoclonal antibodies was monitored for 4 minutes while their dissociation from the antibodies was monitored for 8 minutes in HBST running buffer (0.01 M HEPES pH 7.4, 0.15 M NaCl, 3 mM EDTA, 0.05% v/v Surfactant P20). Experiments were performed at 25° C. and 37° C. Kinetic association (kₐ) and dissociation (kd) rate constants were determined by processing and fitting the data to a 1:1 binding model using Scrubber 2.0c curve fitting software. Binding dissociation equilibrium constants (KD) and dissociative half-lives (t_{1/2}) were then calculated from the kinetic rate constants as: KD (M)=kd/kₐ and t_{1/2} (min)=[ln2/(60*kd)].

For experiment [2], the target named is T2, recombinant human LAG3 expressed with a C-terminal mouse IgG2a mFc tag (human).
T2 construct: Called dimeric; also called hLAG3-mFc; hLAG3 dimer
T2 chain: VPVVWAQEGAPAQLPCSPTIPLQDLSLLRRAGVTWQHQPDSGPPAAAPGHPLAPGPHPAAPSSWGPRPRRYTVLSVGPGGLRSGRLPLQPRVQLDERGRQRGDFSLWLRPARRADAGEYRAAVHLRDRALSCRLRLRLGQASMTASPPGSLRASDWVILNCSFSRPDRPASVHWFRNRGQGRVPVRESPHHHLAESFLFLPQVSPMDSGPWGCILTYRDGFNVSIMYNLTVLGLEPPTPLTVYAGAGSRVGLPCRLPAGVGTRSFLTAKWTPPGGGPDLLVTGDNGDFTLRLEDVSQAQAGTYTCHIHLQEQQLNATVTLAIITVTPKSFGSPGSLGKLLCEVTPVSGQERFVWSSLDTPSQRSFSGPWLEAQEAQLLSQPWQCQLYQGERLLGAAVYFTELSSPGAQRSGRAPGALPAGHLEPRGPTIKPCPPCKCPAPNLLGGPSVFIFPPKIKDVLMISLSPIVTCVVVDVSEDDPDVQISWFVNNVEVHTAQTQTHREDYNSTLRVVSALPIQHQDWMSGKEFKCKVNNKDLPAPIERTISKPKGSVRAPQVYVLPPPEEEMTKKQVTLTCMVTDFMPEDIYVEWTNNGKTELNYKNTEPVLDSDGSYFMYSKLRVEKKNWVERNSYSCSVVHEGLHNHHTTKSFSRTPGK
The experiment is described as follows: SPR, mAb captured, 37 C. On the procedure:
as §1

Experiment [3] deals with T3, human LAG3 expressed on HEK293 cells (human, UniProt P18627 23-525).
T3 construct: also called hLAG3; HEK293/hLAG3
T3 sequence: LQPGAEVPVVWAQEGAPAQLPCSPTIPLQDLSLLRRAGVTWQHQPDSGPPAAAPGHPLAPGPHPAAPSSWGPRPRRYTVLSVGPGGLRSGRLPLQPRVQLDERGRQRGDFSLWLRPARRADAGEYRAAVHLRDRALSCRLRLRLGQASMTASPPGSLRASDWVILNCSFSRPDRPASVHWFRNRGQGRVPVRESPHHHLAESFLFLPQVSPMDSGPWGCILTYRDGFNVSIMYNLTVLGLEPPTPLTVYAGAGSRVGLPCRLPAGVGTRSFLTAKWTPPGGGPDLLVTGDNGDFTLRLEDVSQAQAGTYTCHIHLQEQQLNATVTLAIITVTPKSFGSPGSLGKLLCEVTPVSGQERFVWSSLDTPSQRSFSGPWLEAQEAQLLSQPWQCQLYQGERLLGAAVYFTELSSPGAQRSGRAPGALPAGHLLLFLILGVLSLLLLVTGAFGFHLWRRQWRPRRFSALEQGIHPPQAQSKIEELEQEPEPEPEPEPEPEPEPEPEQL
The experiment in a line: cell adherence assay, blocks A20 (mouse MHCII) cells on HEK293-hLAG3. On the procedure:
Cells were plated into sterile Nunclon™ Delta 96-Well MicroWell™ Black Optical Bottom Plates (Thermo Scientific). The wells from the perimeter of the plate were not included in the assay design to avoid edge effects.
On the day of treatment, all antibodies were serially (1:3) diluted in RPMI media (without FBS or supplements added). The 9-point dilution ranged between 45 pM to 300 nM, with the last dilution point containing no mAb. […] While the plated HEK293-LAG3 cells were incubating with the test or control antibodies, non-adherent B-cells (RAJI or A20) were labeled with Calcein AM using the following procedure. RAJI and A20 suspension cells were harvested and centrifuged at 1,200 rpm for 5 minutes. Cell pellets were resuspended in 1×PBS and counted. Cells were washed with RPMI, and resuspended in RPMI at a concentration of 10⁶ cells per 1 ml. Cells were labeled by adding 5 μL of Calcein AM per 1 ml of cell suspension and incubated for 30 min at 37° C., at 5% CO₂. […] Subsequently, 10 μL of BD Pharmingen Fc Block (0.5 mg/mL) was added per 1 ml of the Calcein AM labeled cells, which were incubated at RT for 10 minutes. The Calcein AM-stained, Fc-blocked RAJI or A20 cells were resuspended in RPMI to a final concentration of 3×10⁶ cells per 1 ml and subsequently used in the adherence assay.
The labeled suspension cells were incubated with the HEK293 monolayer for 1 hour at 37° C., at 5% CO₂.

B1: H4H17826P2 (antibody, human IgG4, V domains shown)
VH: EVQLVESGGGLVQPGGSLRLSCAASGFTFSSYEMNWVRQAPGKGLEWVSYISSSGNTKDYAGSVKGRVTISRDNAKNLLYLQMNSLRAEDTAVYHCARDGGHYDILTGSMSYYYYALDVWGQGTTVTVSS
VL: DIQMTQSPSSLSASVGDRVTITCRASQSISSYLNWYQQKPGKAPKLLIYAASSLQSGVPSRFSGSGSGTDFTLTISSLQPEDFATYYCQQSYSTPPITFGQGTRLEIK
notes: H4H = human IgG4 Fc with S108P hinge mutation
On to B1, for which, in experiment [1], the Kd was determined as 1.99 nM, the koff is 0.00214 s⁻¹, the kon stood at 1.07e+06 M⁻¹ s⁻¹ and the t1/2 was found to be 5.4 min. Also, in experiment [2], the Kd was found to be 0.277 nM, the koff was determined as 0.000547 s⁻¹, the kon was 1.98e+06 M⁻¹ s⁻¹ and the t1/2 was 21.1 min. In experiment [3], this molecule returned an IC50 of 10 nM.

B2: H4H17828P2 (antibody, human IgG4, V domains shown)
VH: EVQLVESGGGLVQPGGSLRLSCAASGFTFKTYAMSWVRQAPGRGLEWVSGISGSGSTSYYADSVKGRFTISRDNYKKTLSLQMNSLRAEDTAVYYCALDIMATVGGLFNNWGQGTLVTVSS
VL: not shown
notes: as for B1
Turning to B2, in experiment [1], the Kd was 1.89 nM, the koff turned out to be 0.00207 s⁻¹, the kon stood at 1.1e+06 M⁻¹ s⁻¹ and the t1/2 was found to be 5.6 min. In experiment [2], the Kd came out at 0.415 nM, the koff was found to be 0.000718 s⁻¹, the kon is 1.73e+06 M⁻¹ s⁻¹ and the t1/2 was 16.1 min. In addition, in experiment [3], the IC50 stood at 16 nM.

B3: H4sH15479P (antibody, V domains shown)
VH: QVQLQQWGAGLLNPSETLSLTCAVYGGAFSDYYWNWIRQPPGKGLEWIGEINHRGSTNYNPSLKSRVTISVDTSKNQFSLRMSSVTAADAAVYYCARGEDYDIWNGYYQEKWGQGTLVTVSS
VL: EIVLTQSPATLSLSPGERATLSCRASQSISTYLAWYQQKPGQAPRLLIYDASKRATGIPARFSGSGSGTDFTLTISSLEPEDFVVYYCHQRSNWPLTFGGGTKVEIK
On to B3, for which, in experiment [1], the Kd came to 0.0341 nM, the off-rate constant (koff) came to 4.24e-05 s⁻¹, the kon amounted to 1.24e+06 M⁻¹ s⁻¹ and the t1/2 was 272 min. In experiment [2], the Kd is 0.00342 nM, the koff came to 1e-05 s⁻¹, the association rate constant (kon) amounted to 2.92e+06 M⁻¹ s⁻¹ and the t1/2 is at least 1160 min. Besides, 6.3 nM corresponded to half-maximal inhibition in experiment [3] (IC50).

B4: H4H17819P (antibody, human IgG4, V domains shown)
VH: EVQLVESGGGLVQPGGSLRLSCVASGFTFSLYAMTWVRQVPGKGLEWVSTISGSGGGTYYTDSVKGRFTISRDNSKNTLYLQMNSLRADDTAVFYCTKESTTGTYSYFYGMDVWGQGTTVTVSS
VL: DIQMTQSPSSLSASVGDRVTITCRASQTISSYLNWYQQKPGKAPKLLIYAASSLQSGVPSRFSGSGSGTDFTLTLSGLQPEDFATYYCQQSYSTPLTFGGGTKVEIK
notes: as for B1
In the case of B4, in experiment [1], the Kd stood at 0.552 nM, the koff amounted to 0.000876 s⁻¹, the kon stood at 1.59e+06 M⁻¹ s⁻¹ and the t1/2 is 13.2 min. Also, in experiment [2], the Kd came to 0.317 nM, the koff turned out to be 0.000527 s⁻¹, the kon stood at 1.66e+06 M⁻¹ s⁻¹ and the t1/2 came out at 21.9 min. In experiment [3], it took 16 nM to reach half-maximal inhibition (IC50).

B5: H4H17823P (antibody, human IgG4, V domains shown)
VH: EVQLLESGGGLVQPGGSLRLSCAASGFTFRSYAMSWVRQAPGKGLEWVSVISGGGGRTYYTDSVKGRFTISRDNSKSMLYLQMNSLRAEDTAIYYCAKERVTGIDHYYYGVDVWGQGTTVTVSS
VL: DIQMTQSPSSLSASVGDRVTITCRASQSISSYLNWYQQKPGKAPKLLIYATSSLQSGVPSRFSGSASGTDFTLAISSLQPEDFATYYCQQSYTTPLTFGGGTKVEIK
notes: as for B1
As for B5, in experiment [1], the Kd was found to be 0.524 nM, the koff came to 0.000924 s⁻¹, the kon is 1.76e+06 M⁻¹ s⁻¹ and the t1/2 came out at 12.5 min. Further, in experiment [2], the dissociation constant (Kd) was determined as 0.437 nM, the koff was determined as 0.000585 s⁻¹, the on-rate constant (kon) worked out at 1.34e+06 M⁻¹ s⁻¹ and the t1/2 worked out at 19.7 min. Besides, the IC50 in experiment [3] was 9.4 nM.

B6: H4sH15462P (antibody, V domains shown)
VH: QVQLVQSGAEVKKPGASVKVSCKASGYTFTNYYIHWVRQAPGQGLDWMGIINPGGGNTNYAQKFLGRVTMTRDTSTTTVYMELSSLRSEDTAIYYCARENWNSYFDNWGQGTLVTVSS
VL: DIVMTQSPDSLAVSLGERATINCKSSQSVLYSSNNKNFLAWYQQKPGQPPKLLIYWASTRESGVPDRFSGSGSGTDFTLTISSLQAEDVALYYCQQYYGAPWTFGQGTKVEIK
notes: H4sH = human IgG4 Fc with 2 or more amino acid changes as disclosed in US20140243504
Take B6: in experiment [1], the Kd came out at 7.66 nM, the koff came out at 0.00772 s⁻¹, the kon is 1.01e+06 M⁻¹ s⁻¹ and the t1/2 is 1.5 min. In addition, in experiment [2], the Kd turned out to be 0.876 nM, the koff worked out at 0.00157 s⁻¹, the kon was determined as 1.8e+06 M⁻¹ s⁻¹ and the t1/2 was 7.3 min. This molecule also showed an IC50 in experiment [3] of 3.6 nM.

B7: H4H15462P (antibody, human IgG4, V domains shown)
VH: QVQLVQSGAEVKKPGASVKVSCKASGYTFTNYYIHWVRQAPGQGLDWMGIINPGGGNTNYAQKFLGRVTMTRDTSTTTVYMELSSLRSEDTAIYYCARENWNSYFDNWGQGTLVTVSS
VL: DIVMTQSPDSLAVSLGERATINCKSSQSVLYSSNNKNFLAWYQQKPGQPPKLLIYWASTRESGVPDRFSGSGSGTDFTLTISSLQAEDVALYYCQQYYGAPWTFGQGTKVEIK
notes: as for B1
On to B7, for which, in experiment [1], the Kd came out at 5.8 nM, the koff is 0.00626 s⁻¹, the kon stood at 1.08e+06 M⁻¹ s⁻¹ and the t1/2 is 1.8 min. In experiment [2], the Kd is 0.415 nM, the koff is 0.000895 s⁻¹, the kon stood at 2.16e+06 M⁻¹ s⁻¹ and the t1/2 is 12.9 min. Besides, the IC50 in experiment [3] was found to be 7.1 nM.
